Experimental data from patent publication US6610541B2, “Recombinant, active caspases and uses thereof” (Thomas Jefferson University, priority 1998, dated 2003).
Each block holds one molecule with its values, some of them ahead of it. Peptide text beside a SMILES is read from it. * marks the point of attachment. Cbz = O=C(OCc1ccccc1)*; CH2F = FC*

What was measured:
rev-caspase-3 = target: T1, rev-caspase-3 (Homo sapiens, UniProt P42574); assay: Autocatalytic processing of in vitro translated rev-caspase-3 (SDS-PAGE/autoradiography); format: biochemical; parameters: T7-tag (15 residues) (N); made in house; host or cells: in vitro translation in rabbit reticulocyte lysate (TNT Kit, Promega)
T1 sequence (P42574 with tags, fused parts or gaps): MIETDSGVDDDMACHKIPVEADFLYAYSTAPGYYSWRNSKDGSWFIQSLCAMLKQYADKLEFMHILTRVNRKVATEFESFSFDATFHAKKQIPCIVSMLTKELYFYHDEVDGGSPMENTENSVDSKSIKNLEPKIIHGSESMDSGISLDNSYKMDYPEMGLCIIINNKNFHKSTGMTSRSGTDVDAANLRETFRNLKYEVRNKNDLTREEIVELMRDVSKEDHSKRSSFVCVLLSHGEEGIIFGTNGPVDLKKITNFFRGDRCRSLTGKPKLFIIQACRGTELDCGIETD
Method: (§1) FIGS. 2B and C are scanned images of autoradiograms representing SDS-PAGE analysis of the autoprocessing of rev-caspase-3 and -6, respectively in the presence of varying levels of selected caspase inhibitors. Rev-caspase-3 (FIG. 2B) or rev-caspase-6 (FIG. 2C) were in vitro translated in the presence of increasing concentrations of DEVD-CHO […]; (SEQ ID NO:52), or zVAD-fmk (0-5 μM). The translation products were then analyzed as in FIG. 2A. WT, wild-type.
(§2) ^35S-labeled caspases (wild-type and rev-caspases) were obtained by in vitro translation in the presence of ^35S-methionine using a coupled transcription/translation system in rabbit reticulocyte lysate using TNT Kit (Promega) according to the manufacturer's recommendations.
(§3) To test the effect of selected caspase inhibitors on the autocatalytic activity of rev-caspase-3 and 6, the rev-caspases were translated as in Example 3, but in the presence of varying amounts of inhibitors.

rev-caspase-6 = target: T2, rev-caspase-6 (Homo sapiens, UniProt P55212); assay: Autocatalytic processing of in vitro translated rev-caspase-6 (SDS-PAGE/autoradiography); format: biochemical; parameters: T7-tag (15 residues) (N); made in house; host or cells: in vitro translation in rabbit reticulocyte lysate (TNT Kit, Promega); conditions: at the concentration used (zVAD-fmk 0-5 μM); p35 data not shown
T2 sequence (P55212 with tags, fused parts or gaps): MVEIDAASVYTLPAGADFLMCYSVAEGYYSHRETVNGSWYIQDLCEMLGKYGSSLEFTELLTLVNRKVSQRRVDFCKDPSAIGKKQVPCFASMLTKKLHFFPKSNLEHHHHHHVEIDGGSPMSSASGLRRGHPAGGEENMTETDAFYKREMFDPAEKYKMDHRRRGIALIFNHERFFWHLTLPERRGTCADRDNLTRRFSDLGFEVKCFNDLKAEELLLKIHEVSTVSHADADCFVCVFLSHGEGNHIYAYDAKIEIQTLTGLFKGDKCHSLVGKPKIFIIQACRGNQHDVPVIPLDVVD
Method: as §1, §2, §3

lamin A = assay: Cleavage of in vitro translated lamin A C-terminus by bacterially expressed caspases; format: biochemical; conditions: BL-21 bacterial extracts, 2 h at 37° C.
Method: (§4) FIGS. 3A and B are scanned images representing the SDS-PAGE analysis of the ability of rev-caspase-3 (imaged by western blot) and -6 (imaged by autoradiogram) to cleave PARP and lamin, respectively. In FIG. 3A purified human PARP was incubated with buffer (lane 1) or BL-21 bacterial extracts prepared from bacteria transformed with caspase-3 (lane 2), rev-caspase-3 (lane 3), caspase-6 (lane 4), rev-caspase-6 (lane 5) constructs or empty pET28a vector (lane 6) for 2 h at 37° C. The reaction products were then analyzed by SDS-PAGE and Western blotting with anti-human PARP antibody. In FIG. 3B a cDNA encoding the C-terminus of lamin A (amino acids) which contain the caspase-6 cleavage site (VEIDA); (SEQ ID NO:116), was amplified by PCR and in vitro translated in the presence of ^35S-methionine. The labeled product was incubated with buffer (lane 1) or the BL-21 bacterial extracts listed above for 2 h at 37° C., and then analyzed by SDS-PAGE and autoradiography. The cleavage products are indicated to the right.
(§5) At limited caspase concentrations, poly(ADP) ribose polymerase (PARP) is specifically cleaved by caspase-3 and 7 but not other caspases. Similarly, lamin is specifically cleaved by caspase-6 but not other caspases. […]

MCF-7 cells = assay: Induction of apoptosis in transfected MCF-7 cells (round blue apoptotic cells); format: cell-based, human
Method: FIGS. 4A and B are bar diagrams representing the ability of rev-caspase-3 and -6 to induce apoptosis in MCF-7 cells. MCF-7 cells were transiently transfected with either rev-caspase-3 (FIG. 4A), or rev-caspase-6 (FIG. 4B) expression constructs in combination with 4-fold of CrmA, p35 or Bcl-2 expression constructs, or 20 μM zVAD-fmk. Cells transfected with an empty vector or the wild-type caspase-3 or -6 were used as controls.
To express the rev-caspases in mammalian cells and assay their apoptotic activity, they were amplified with the T7-tag primer and the LS-reverse primers using the pET28a constructs as templates, and subcloned into the mammalian double expression vector pRSC-LacZ (MacFarlane et al., J. Biol. Chem., 272: 25417-25420, 1997; Tsang et al., Bio/Technology, 22: 68, 1997). This vector allows the expression of lacZ under the Rous Sarcoma virus promoter, and the test cDNA under the CMV promoter. To assay for apoptosis, MCF-7 or 293 cells were transfected, using the method commercially available as the Lipofect Amine method (Life Technologies, Inc.), with the pRSC-LacZ constructs in the presence or absence of different apoptosis-inhibitors. 30 h after transfection cells were stained with β-galactosidase and examined for morphological signs of apoptosis. The percentage of round blue apoptotic cells (mean±SD) were represented as a function of total blue cells under each condition (n≧3).
To determine the apoptotic activity of rev-caspase-3 and 6 in vivo, the rev-caspases were expressed in human MCF-7 cells, transfected as explained above in Example 2.

human PARP = assay: Cleavage of PARP by bacterially expressed caspases (Western blot); format: biochemical; conditions: BL-21 bacterial extracts, 2 h at 37° C.
Method: as §4, §5

[1] = target: T3, uncleavable rev-caspase-3 (Homo sapiens, UniProt P42574, D28A/D9A); assay: In vitro translation of uncleavable rev-caspase-3: His6-T7-tag processing; format: biochemical
T3 construct: uncleavable rev-caspase-3 (B); made in house; host or cells: in vitro translation in rabbit reticulocyte lysate (TNT Kit, Promega)
T3 sequence (P42574 with tags, fused parts or gaps D9A/D28A): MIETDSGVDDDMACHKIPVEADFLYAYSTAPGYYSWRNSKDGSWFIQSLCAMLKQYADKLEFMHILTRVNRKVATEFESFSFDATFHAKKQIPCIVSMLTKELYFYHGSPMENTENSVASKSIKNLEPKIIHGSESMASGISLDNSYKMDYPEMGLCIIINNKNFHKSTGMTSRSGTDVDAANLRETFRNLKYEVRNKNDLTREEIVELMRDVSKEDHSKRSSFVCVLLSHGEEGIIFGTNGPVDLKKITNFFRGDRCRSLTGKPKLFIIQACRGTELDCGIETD
Description: FIG. 5A is a scanned image of an autoradiogram representing SDS-PAGE analysis of the enzymatic activity of uncleavable rev-caspase-3. Uncleavable rev-caspase-3 was in vitro translated in the absence or the presence of increasing concentrations of DEVD-CHO (SEQ ID NO:52),. The translation product contains a cleavable 35 residues-long His6-T7-tag at its N-terminus. The active site mutant rev-caspase-3 (Rev C/A) was used as a control. The p32 cleavage product without the His6-T7-tag is indicated to the right.
^35S-labeled caspases (wild-type and rev-caspases) were obtained by in vitro translation in the presence of ^35S-methionine using a coupled transcription/translation system in rabbit reticulocyte lysate using TNT Kit (Promega) according to the manufacturer's recommendations. […] Because the in vitro translated products are present at very low concentration in the reaction mixture, the observed cleavage must be attributed to an intramolecular processing within the caspase heterotetramer.
However, to follow the activity of this molecule a cleavable 35 residue long His6-T7-tag N-terminal to the IETD (SEQ ID NO:53) site was introduced (see FIG. 1B). […] Nevertheless, the translated molecule was active as evident from its ability to cleave its T7-tag to form the p32 species (FIG. 5). In the presence of 400 nM DEVD-CHO (SEQ ID NO:52), processing of the T7-tag was inhibited and only the full length p34 species can be seen. […] Thus by mimicking the mature caspase structure, it is possible to design a contiguous active caspase molecules.

B1: wild-type caspase-6: wild-type human caspase-6 (SEQ ID NO:21) (protein)
chain: MSSASGLRRGHPAGGEENMTETDAFYKREMFDPAEKYKMDHRRRGIALIFNHERFFWHLTLPERRGTCADRDNLTRRFSDLGFEVKCFNDLKAEELLLKIHEVSTVSHADADCFVCVFLSHGEGNHIYAYDAKIEIQTLTGLFKGDKCHSLVGKPKIFIIQACRGNQHDVPVIPLDVVDNQTEKLDTNITEVDAASVYTLPAGADFLMCYSVAEGYYSHRETVNGSWYIQDLCEMLGKYGSSLEFTELLTLVNRKVSQRRVDFCKDPSAIGKKQVPCFASMLTKKLHFFPKSN
cleavage of lamin (lamin A): efficiently cleaved lamin

B3: wild-type caspase-3: wild-type human caspase-3 (SEQ ID NO:12) (protein)
chain: MENTENSVDSKSIKNLEPKIIHGSESMDSGISLDNSYKMDYPEMGLCIIINNKNFHKSTGMTSRSGTDVDAANLRETFRNLKYEVRNKNDLTREEIVELMRDVSKEDHSKRSSFVCVLLSHGEEGIIFGTNGPVDLKKITNFFRGDRCRSLTGKPKLFIIQACRGTELDCGIETDSGVDDDMACHKIPVDADFLYAYSTAPGYYSWRNSKDGSWFIQSLCAMLKQYADKLEFMHILTRVNRKVATEFESFSFDATFHAKKQIPCIVSMLTKELYFYH
cleavage of PARP (human PARP): efficiently cleaved PARP

B4: Noncleavable Rev-caspase-3: rev-caspase-3 with DEVD site removed and Asp9 and 28 mutated (SEQ ID NO:35) (protein)
chain: T3 sequence (P42574 with tags, fused parts or gaps D9A/D28A)
modifications: OTHER INFORMATION: Uncleavable Rev-Caspase-3 co ntructed from human caspase -3
induction of apoptosis on expression in cells (MCF-7 cells): potently induced apoptosis
activity of translated molecule (cleaves its T7-tag to form the p32 species) [1]: active
cleavage between the two subunits upon in vitro translation [1]: no evidence of cleavage between the two subunits

Continued, in another order:

inhibitory effect on rev-caspase-3 autocatalytic activity compared with rev-caspase-6 (rev-caspase-3; at the concentration used (zVAD-fmk 0-5 μM), p35 data not shown): nearly an equal inhibitory effect
amount required relative to DEVD-CHO to obtain complete inhibition of caspase-3 activity (rev-caspase-3; in vitro translation of rev-caspase-3): ~10 fold
inhibitory effect on rev-caspase-6 autocatalytic activity compared with rev-caspase-3 (rev-caspase-6): nearly an equal inhibitory effect
Molecule: COC(=O)C[C@H](NC(=O)[C@H](C)NC(=O)[C@@H](NC(=O)OCc1ccccc1)C(C)C)C(=O)CF [z-VAD-fmk] (Cbz-Val-Ala-Asp(OMe)-CH2F)

autocatalytic processing in the in vitro translation reaction (rev-caspase-3 constructs) (rev-caspase-3; rabbit reticulocyte lysate, 35S-methionine): able to undergo autocatalytic processing
B2: rev-caspase-3: contiguous caspase-3 with small subunit fused N-terminal to large subunit, DEVDG cleavage site between them (SEQ ID NO:34) (protein)
chain: T1 sequence (P42574 with tags, fused parts or gaps)
modifications: OTHER INFORMATION: Rev-Caspase-3 contructed fro m human caspase -3
apoptosis in transfected cells (MCF-7 cells; 30 h after transfection): ~90%
cleavage of PARP (human PARP): efficiently cleaved PARP
